Test results: patent US20140087995A1 (published 2014)
Blank lines part the entries; values can stand above or below the binder they belong to. Numbered stars: 1 amine (or outer) side, 2 acyl side, 3 side chain; on linkers, the order of the positions; unused ones are H or OH. Bridge positions count the residues as written; N and C are the ends. Side chains are listed from the residue outwards. Ends that are not written are not given here. * marks the point of attachment. C20 diacid = O=C(O)CCCCCCCCCCCCCCCCCCC(=O)*; γGlu = O=C(O)[C@H](CCC(=O)[*:2])N[*:1]; AEEA = NCCOCCOCC(=O)O

What was measured:
[1] = target: T1, human calcitonin receptor (human, UniProt P30988 25-474); test: cell-based or functional assay
T1 sequence (looked up): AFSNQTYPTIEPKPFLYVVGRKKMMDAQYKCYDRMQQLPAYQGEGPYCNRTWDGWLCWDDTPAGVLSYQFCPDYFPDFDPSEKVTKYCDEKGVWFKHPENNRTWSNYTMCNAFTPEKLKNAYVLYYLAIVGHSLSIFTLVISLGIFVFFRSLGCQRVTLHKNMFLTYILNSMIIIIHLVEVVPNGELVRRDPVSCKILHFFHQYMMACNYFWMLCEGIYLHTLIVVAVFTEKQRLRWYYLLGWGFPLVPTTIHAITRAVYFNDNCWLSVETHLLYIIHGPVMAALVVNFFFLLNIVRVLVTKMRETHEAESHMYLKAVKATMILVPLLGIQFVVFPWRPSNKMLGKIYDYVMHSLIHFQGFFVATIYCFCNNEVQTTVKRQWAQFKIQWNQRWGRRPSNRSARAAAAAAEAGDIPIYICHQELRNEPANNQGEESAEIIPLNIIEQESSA

[2] = target: T2, human amylin receptor (amylin 3(a) receptor: human calcitonin receptor plus RAMP-3) (human, UniProt P30988 25-474; O60896 24-148); test: cell-based or functional assay
T2 sequence (looked up) 1: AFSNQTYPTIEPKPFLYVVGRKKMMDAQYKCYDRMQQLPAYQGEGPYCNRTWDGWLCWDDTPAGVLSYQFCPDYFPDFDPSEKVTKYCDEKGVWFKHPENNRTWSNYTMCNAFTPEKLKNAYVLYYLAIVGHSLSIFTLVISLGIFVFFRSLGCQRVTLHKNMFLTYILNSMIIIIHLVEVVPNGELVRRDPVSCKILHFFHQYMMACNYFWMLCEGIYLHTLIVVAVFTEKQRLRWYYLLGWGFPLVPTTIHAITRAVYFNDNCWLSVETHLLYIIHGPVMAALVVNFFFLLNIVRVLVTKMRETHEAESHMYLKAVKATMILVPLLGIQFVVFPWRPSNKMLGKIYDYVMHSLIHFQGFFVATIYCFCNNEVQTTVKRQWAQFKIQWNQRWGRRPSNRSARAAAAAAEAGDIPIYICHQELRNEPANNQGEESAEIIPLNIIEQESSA
T2 sequence (looked up) 2: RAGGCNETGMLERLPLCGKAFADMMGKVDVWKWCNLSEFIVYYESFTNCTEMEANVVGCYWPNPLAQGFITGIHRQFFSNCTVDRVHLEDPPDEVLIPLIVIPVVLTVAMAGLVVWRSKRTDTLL

[3] = target: T2, human amylin receptor (amylin 3(a) …); test: SPA competition binding, displacement of 125I-rat amylin, membranes of BHK amylin 3(a)/CRE-luc cells
Protocol: The binding assay was performed using scintillation proximity assay (SPA) beads (RPNQ0001) from PerkinElmer and cell membranes from the Amylin 3(a)/CRE-luc cells (as described in Assay (II)) were used. Membranes were prepared in the following way; the cells were rinsed with PBS and incubated with Versene for approximately 5 min before harvesting. The cells were flushed with PBS and the cell-suspension was centrifuged for 5 min at 1000 rpm. Cells were homogenized (ultrathurrax) in a buffer containing 20 mM Na-HEPES and 10 mM EDTA (pH 7.4) and centrifuged at 20.000 rpm for 15 min. The resulting pellet was resuspended, homogenized and centrifuged (20.000 rpm, 15 min) in a buffer containing 20 mM Na-HEPES and 0.1 mM EDTA (pH 7.4, buffer 2). The resulting pellet was resuspended in buffer 2 and protein concentration was measured (BCA protein Assay, Pierce). The homogenate was kept cold during the whole procedure. The membranes were kept at −80° C. until use. The assay was performed in a 384 well Optiplate (PerkinElmer) in a total volume of 40 ul. Membranes were mixed with SPA beads. Final concentration of membranes 35 ng/μL final and SPA beads was 0.05 mg/well. Test-compounds were dissolved in DMSO and further diluted in assay buffer (50 mM Hepes, pH 7.4, 1 mM CaCl2, 5 mM MgCl₂, 0.1% OA and 0.02% Tween20). […] The final mixture was incubated with shaking at 400 rpm for 120 min at 25° C. prior to centrifugation (1500 rpm, 10 min). Samples were analyzed on TopCounter™ (Packard). The IC₅₀ was calculated using (one site binding competition analysis) GraphPad Prism5 as a measure of receptor affinity.

hCTR funct. EC50 (pM) [1]: 742 pM | Ratio hCT/hAmylin funct. [2]: 4.8 | hAmylin-R funct. EC50 (pM) [2]: 154 pM | IC50 [3]: 554 pM
B1: N^α1-[(4S)-4-carboxy-4-(19-carboxynonadecanoylamino)butanoyl]-[Glu14,Arg17,Pro21,Pro27,His35]-h-amylin (peptide)
peptide: {C20 diacid-γGlu}-KCNTATCATQRLAEFLRHSSPNFGAIPSSTNVGSHTY-NH2
modifications: disulfide 2-7
SMILES: CC[C@H](C)[C@H](NC(=O)[C@H](C)NC(=O)CNC(=O)[C@H](Cc1ccccc1)NC(=O)[C@H](CC(N)=O)NC(=O)[C@@H]1CCCN1C(=O)[C@H](CO)NC(=O)[C@H](CO)NC(=O)[C@H](Cc1c[nH]cn1)NC(=O)[C@H](CCCNC(=N)N)NC(=O)[C@H](CC(C)C)NC(=O)[C@H](Cc1ccccc1)NC(=O)[C@H](CCC(=O)O)NC(=O)[C@H](C)NC(=O)[C@H](CC(C)C)NC(=O)[C@H](CCCNC(=N)N)NC(=O)[C@H](CCC(N)=O)NC(=O)[C@@H](NC(=O)[C@H](C)NC(=O)[C@@H]1CSSC[C@H](NC(=O)[C@H](CCCCN)NC(=O)CC[C@H](NC(=O)CCCCCCCCCCCCCCCCCCC(=O)O)C(=O)O)C(=O)N[C@@H](CC(N)=O)C(=O)N[C@@H]([C@@H](C)O)C(=O)N[C@@H](C)C(=O)N[C@@H]([C@@H](C)O)C(=O)N1)[C@@H](C)O)C(=O)N1CCC[C@H]1C(=O)N[C@@H](CO)C(=O)N[C@@H](CO)C(=O)N[C@H](C(=O)N[C@@H](CC(N)=O)C(=O)N[C@H](C(=O)NCC(=O)N[C@@H](CO)C(=O)N[C@@H](Cc1c[nH]cn1)C(=O)N[C@H](C(=O)N[C@@H](Cc1ccc(O)cc1)C(N)=O)[C@@H](C)O)C(C)C)[C@@H](C)O
notes: also called compound 18

hCTR funct. EC50 (pM) [1]: 10000 pM | Ratio hCT/hAmylin funct. [2]: 46.2 | hAmylin-R funct. EC50 (pM) [2]: 217 pM | IC50 [3]: 768 pM
B3: N^ε1-[2-[2-[2-[[2-[2-[2-[[(4S)-4-carboxy-4-(19-carboxynonadecanoylamino)butanoyl]amino]ethoxy]ethoxy]acetyl]amino]ethoxy]ethoxy]acetyl]-[Arg17,Pro21,Pro27,Glu35 … (peptide)
peptide: K([AEEA-AEEA-γGlu-C20 diacid])CNTATCATQRLANFLRHSSPNFGAIPSSTNVGSETY-NH2
modifications: disulfide 2-7; N-terminus assumed
SMILES: CC[C@H](C)[C@H](NC(=O)[C@H](C)NC(=O)CNC(=O)[C@H](Cc1ccccc1)NC(=O)[C@H](CC(N)=O)NC(=O)[C@@H]1CCCN1C(=O)[C@H](CO)NC(=O)[C@H](CO)NC(=O)[C@H](Cc1c[nH]cn1)NC(=O)[C@H](CCCNC(=N)N)NC(=O)[C@H](CC(C)C)NC(=O)[C@H](Cc1ccccc1)NC(=O)[C@H](CC(N)=O)NC(=O)[C@H](C)NC(=O)[C@H](CC(C)C)NC(=O)[C@H](CCCNC(=N)N)NC(=O)[C@H](CCC(N)=O)NC(=O)[C@@H](NC(=O)[C@H](C)NC(=O)[C@@H]1CSSC[C@H](NC(=O)[C@@H](N)CCCCNC(=O)COCCOCCNC(=O)COCCOCCNC(=O)CC[C@H](NC(=O)CCCCCCCCCCCCCCCCCCC(=O)O)C(=O)O)C(=O)N[C@@H](CC(N)=O)C(=O)N[C@@H]([C@@H](C)O)C(=O)N[C@@H](C)C(=O)N[C@@H]([C@@H](C)O)C(=O)N1)[C@@H](C)O)C(=O)N1CCC[C@H]1C(=O)N[C@@H](CO)C(=O)N[C@@H](CO)C(=O)N[C@H](C(=O)N[C@@H](CC(N)=O)C(=O)N[C@H](C(=O)NCC(=O)N[C@@H](CO)C(=O)N[C@@H](CCC(=O)O)C(=O)N[C@H](C(=O)N[C@@H](Cc1ccc(O)cc1)C(N)=O)[C@@H](C)O)C(C)C)[C@@H](C)O
notes: also called compound 25

The next lines start with the binder.

Binder: {C20 diacid-γGlu}-KCNTATCATQRLAEFLRHSSPNFGAILPSTNVGSETY-NH2 (disulfide 2-7, also called compound 33)
hCTR funct. EC50 (pM) [1]: 528 pM | Ratio hCT/hAmylin funct. [2]: 2.2 | hAmylin-R funct. EC50 (pM) [2]: 243 pM | IC50 [3]: 915 pM

B2: N^α1-[(4S)-4-carboxy-4-(19-carboxynonadecanoylamino)butanoyl]-[His14,Arg17,Pro21,Pro27,Glu35]-h-amylin (peptide)
peptide: {C20 diacid-γGlu}-KCNTATCATQRLAHFLRHSSPNFGAIPSSTNVGSETY-NH2
modifications: disulfide 2-7
SMILES: CC[C@H](C)[C@H](NC(=O)[C@H](C)NC(=O)CNC(=O)[C@H](Cc1ccccc1)NC(=O)[C@H](CC(N)=O)NC(=O)[C@@H]1CCCN1C(=O)[C@H](CO)NC(=O)[C@H](CO)NC(=O)[C@H](Cc1c[nH]cn1)NC(=O)[C@H](CCCNC(=N)N)NC(=O)[C@H](CC(C)C)NC(=O)[C@H](Cc1ccccc1)NC(=O)[C@H](Cc1c[nH]cn1)NC(=O)[C@H](C)NC(=O)[C@H](CC(C)C)NC(=O)[C@H](CCCNC(=N)N)NC(=O)[C@H](CCC(N)=O)NC(=O)[C@@H](NC(=O)[C@H](C)NC(=O)[C@@H]1CSSC[C@H](NC(=O)[C@H](CCCCN)NC(=O)CC[C@H](NC(=O)CCCCCCCCCCCCCCCCCCC(=O)O)C(=O)O)C(=O)N[C@@H](CC(N)=O)C(=O)N[C@@H]([C@@H](C)O)C(=O)N[C@@H](C)C(=O)N[C@@H]([C@@H](C)O)C(=O)N1)[C@@H](C)O)C(=O)N1CCC[C@H]1C(=O)N[C@@H](CO)C(=O)N[C@@H](CO)C(=O)N[C@H](C(=O)N[C@@H](CC(N)=O)C(=O)N[C@H](C(=O)NCC(=O)N[C@@H](CO)C(=O)N[C@@H](CCC(=O)O)C(=O)N[C@H](C(=O)N[C@@H](Cc1ccc(O)cc1)C(N)=O)[C@@H](C)O)C(C)C)[C@@H](C)O
notes: also called compound 30
hCTR funct. EC50 (pM) [1]: 1680 pM | hAmylin-R funct. EC50 (pM) [2]: 134 pM | IC50 [3]: 919 pM

B4: N^ε1-[2-[2-[2-[[(4S)-4-carboxy-4-(19-carboxynonadecanoylamino)butanoyl]amino]ethoxy]ethoxy]acetyl]-[Arg17,Pro21,Pro27,Glu35]-h-amylin (peptide)
peptide: K([AEEA-γGlu-C20 diacid])CNTATCATQRLANFLRHSSPNFGAIPSSTNVGSETY-NH2
modifications: disulfide 2-7; N-terminus assumed
SMILES: CC[C@H](C)[C@H](NC(=O)[C@H](C)NC(=O)CNC(=O)[C@H](Cc1ccccc1)NC(=O)[C@H](CC(N)=O)NC(=O)[C@@H]1CCCN1C(=O)[C@H](CO)NC(=O)[C@H](CO)NC(=O)[C@H](Cc1c[nH]cn1)NC(=O)[C@H](CCCNC(=N)N)NC(=O)[C@H](CC(C)C)NC(=O)[C@H](Cc1ccccc1)NC(=O)[C@H](CC(N)=O)NC(=O)[C@H](C)NC(=O)[C@H](CC(C)C)NC(=O)[C@H](CCCNC(=N)N)NC(=O)[C@H](CCC(N)=O)NC(=O)[C@@H](NC(=O)[C@H](C)NC(=O)[C@@H]1CSSC[C@H](NC(=O)[C@@H](N)CCCCNC(=O)COCCOCCNC(=O)CC[C@H](NC(=O)CCCCCCCCCCCCCCCCCCC(=O)O)C(=O)O)C(=O)N[C@@H](CC(N)=O)C(=O)N[C@@H]([C@@H](C)O)C(=O)N[C@@H](C)C(=O)N[C@@H]([C@@H](C)O)C(=O)N1)[C@@H](C)O)C(=O)N1CCC[C@H]1C(=O)N[C@@H](CO)C(=O)N[C@@H](CO)C(=O)N[C@H](C(=O)N[C@@H](CC(N)=O)C(=O)N[C@H](C(=O)NCC(=O)N[C@@H](CO)C(=O)N[C@@H](CCC(=O)O)C(=O)N[C@H](C(=O)N[C@@H](Cc1ccc(O)cc1)C(N)=O)[C@@H](C)O)C(C)C)[C@@H](C)O
notes: also called compound 26
hCTR funct. EC50 (pM) [1]: 6340 pM | Ratio hCT/hAmylin funct. [2]: 29.9 | hAmylin-R funct. EC50 (pM) [2]: 212 pM | IC50 [3]: 532 pM
